From patent US20060259987A1 (UNIVERSITY OF UTAH RESEARCH FOUNDATION, published 2006) come the findings set out here.

Where a chain is given by its changes, count along the chain named. Names and notes keep the numbering of the source.

The target of assay [1] is T1, thrombin (human, UniProt P00734 328-622). The assay is described as follows: Kapp IIa/prog relative to plasma.at3.
For assay [2], the target named is T2, factor Xa (human, UniProt P00742 41-179; P00742 235-488, limits assumed).
T2 construct: also called fXa; human factor Xa
The experiment in a line: factor Xa prog: pseudo-first-order loss of chromogenic activity, no heparin, 25 C. How it is done: (§1) Polybrene was added with the chromogenic substrate to quench the heparin dependent reaction. […] This was plotted against the heparin concentration to calculate the second-order rate constant for the inhibition by the heparin-ATIII complex, (Kₕₑₚ) from the equation Kobs=Kₕₑₚ[H]ₒ([AT]ₒ/[AT]ₒ+Kd)+Kuncat[AT]ₒ
T2 sequence (P00742 41-179 limits assumed, chain 1 of 2): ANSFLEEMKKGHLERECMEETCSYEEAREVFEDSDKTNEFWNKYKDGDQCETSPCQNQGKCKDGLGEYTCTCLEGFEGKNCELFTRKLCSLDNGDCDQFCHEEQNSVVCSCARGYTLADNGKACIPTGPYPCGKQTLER
T2 sequence (P00742 235-488 limits assumed, chain 2 of 2): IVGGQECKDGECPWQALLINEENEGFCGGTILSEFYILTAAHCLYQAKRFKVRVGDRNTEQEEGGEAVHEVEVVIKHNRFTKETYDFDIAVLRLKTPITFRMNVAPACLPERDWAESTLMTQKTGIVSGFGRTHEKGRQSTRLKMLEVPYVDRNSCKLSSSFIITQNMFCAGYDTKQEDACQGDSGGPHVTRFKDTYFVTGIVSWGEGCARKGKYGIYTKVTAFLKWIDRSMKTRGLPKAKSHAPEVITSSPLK

The target of assay [3] is T1, thrombin. The experiment in a line: thrombin prog: pseudo-first-order loss of chromogenic activity, no heparin, 25 C. How it is done: as §1
Assay [4] deals with T2, factor Xa. The assay is described as follows: factor Xa +hep: pseudo-first-order loss of chromogenic activity with heparin. On the procedure:
(§2) Polybrene was added with the chromogenic substrate to quench the heparin dependent reaction. The observed pseudo-first-order rate constants were calculated for each heparin (1 nM-5 nM) concentration from the slope of the log of residual proteinase activity vs. time. This was plotted against the heparin concentration to calculate the second-order rate constant for the inhibition by the heparin-ATIII complex, (Kₕₑₚ) from the equation Kobs=Kₕₑₚ[H]ₒ([AT]ₒ/[AT]ₒ+Kd)+Kuncat[AT]ₒ

Assay [5] concerns the target T2, factor Xa. The assay is described as follows: cell-based or functional assay.
For assay [6], the target named is T1, thrombin. The assay is described as follows: cell-based or functional assay.
For assay [7], the target named is T2, factor Xa. The experiment in a line: Kapp fXa/prog relative to plasma.at3.
Assay [8] has as its target T2, factor Xa. The experiment in a line: Kapp fXa/hep relative to plasma.at3.
The target in assay [9] is T1, thrombin. The experiment in a line: thrombin +hep: pseudo-first-order loss of chromogenic activity with heparin. How it is done:
as §2

The target of assay [10] is T1, thrombin. The assay is described as follows: Kapp IIa/hep relative to plasma.at3.
Assay [11] concerns the target T3, factor Xa (human, UniProt P00742 41-179; P00742 235-488, limits assumed).
T3 construct: Active factor Xa has a light and a heavy chain; also called fXa
The assay is described as follows: heparin cofactor assay, HCA expt #3; ATIII titrated on 10 nM fXa + 50 ug/ml UFH, chromogenic readout. How it is done: (§3) After 3 minutes, the reactions were quenched with polybrene and chromogenic substrate S2238 (thrombin) or S2765 (fXa), and the initial rate of chromophore production (405 nm) recorded to obtain a measurement residual, uninhibited thrombin or factor Xa. IC50s were determined from plots of ATIII concentration vs. percent residual target enzyme activity.
T3 sequence (P00742 41-179 limits assumed, form in doubt, chain 1 of 2): as the sequence (P00742 41-179 limits assumed, chain 1 of 2) above
T3 sequence (P00742 235-488 limits assumed, form in doubt, chain 2 of 2): as the sequence (P00742 235-488 limits assumed, chain 2 of 2) above

Assay [12] has as its target T3, factor Xa. The assay is described as follows: cell-based or functional assay. This is another data set of the same source.
The target of assay [13] is T4, thrombin (human, UniProt P00734 328-622). The assay is described as follows: cell-based or functional assay. The source holds these as a separate data set.
Assay [14] concerns the target T3, factor Xa. The experiment in a line: heparin cofactor assay, HCA expt #2; ATIII titrated on 10 nM fXa + 50 ug/ml UFH, chromogenic readout. How it is done: as §3
Assay [15] addresses T4, thrombin. The experiment in a line: heparin cofactor assay, HCA expt #2; ATIII titrated on 10 nM thrombin + 50 ug/ml UFH, chromogenic readout. How it is done:
as §3

Assay [16] has as its target T4, thrombin. The assay is described as follows: heparin cofactor assay, HCA expt #3; ATIII titrated on 10 nM thrombin + 50 ug/ml UFH, chromogenic readout. On the procedure:
as §3

Broadly, the IC50 is the midpoint of a concentration-inhibition curve.

B1: LEAI.474 (other)
chain: SPVDICTAKPRDIPMNPMCIYRSPEKKATEDEGSEQKIPEATNRRVWELSKANSRFATTFYQHLADSKNDNDNIFLSPLSISTAFAMTKLGACNDTLQQLMEVFKFDTISEKTSDQIHFFFAKLNCRLYRKANKASKLVSANRLFGDKSLTFNETYQDISELVYGAKLQPLDFKENAEQSRAAINKWVSNKTEGRITDVIPSEAINELTVLVLVNTIYFKGLWKSKFSPENTRKELFYKADGESCSASMMYQEGKFRYRRVAEGTQVLELPFKGDDITMVLILPKPEKSLAKVEKELTPEVLQEWLDELEEMMLVVHMPRFRIEDGFSLKEQLQDMGLVDLFSPEKSKLPGIVAEGRDDLYVSDAFHKAFLEVNEEGSEAAASTALEAQGRSLNPNRVTFKANRPFLVFIREVPLNTIIFMGRVANPCVK
notes: also called DES.LEAI.474
On to B1, for which the “Kapp as a percentage of the plasma ATIII value” (shortened to “Kapp as a percentage”) in [1] was 38%. In assay [2], the “kapp (apparent second-order inhibition rate constant)” value was 10700 M⁻¹ s⁻¹. Besides, the “kapp (apparent second-order inhibition rate constant)” value in assay [3] stood at 2680 M⁻¹ s⁻¹. Besides, the “kapp (apparent second-order inhibition rate constant)” value in assay [4] came out at 1.25e+06 M⁻¹ s⁻¹. In addition, in assay [5], the “IC50 fXa/UFH; HCA #2” value came out at 20 nM, the “IC50 fXa/UFH; HCA #3” value was found to be 16 nM, the “IC50 fXa/UFH; HCA #4” value worked out at 13 nM and the “rsd. Xa catG; CA #12; stg1 conc 200” value stood at 1%. Besides, in assay [5], the “rsd. Xa catG; CA #14; stg1 conc 200” value came out at 1%, the “rsd. Xa catG; CA #15; stg1 conc 200” value stood at 0%, the “rsd. Xa hne; CA #14; stg1 conc 200” value was 1% and the “rsd. Xa hne; CA #15; stg1 conc 200” value turned out to be 1%. Also, in assay [5], the “rsd. Xa no add; CA #14; stg1 conc 200” value amounted to 2% and the “rsd. Xa no add; CA #15; stg1 conc 200” value came to 0%. Further, in [6], the “IC50 IIa/UFH; HCA #2” value turned out to be 65 nM, the “IC50 IIa/UFH; HCA #3” value stood at 47 nM, the “IC50 IIa/UFH; HCA #4” value was 50 nM and the “rsd. IIa catG; CA #12; stg1 conc 200” value was 1%. For the same molecule, in [6], the “rsd. IIa catG; CA #14; stg1 conc 200” value amounted to 1%, the “rsd. IIa catG; CA #15; stg1 conc 200” value is 1%, the “rsd. IIa hne; CA #14; stg1 conc 200” value stood at 2% and the “rsd. IIa hne; CA #15; stg1 conc 200” value amounted to 6%. Moreover, in [6], the “rsd. IIa no add; CA #14; stg1 conc 200” value was 2% and the “rsd. IIa no add; CA #15; stg1 conc 200” value was found to be 0%. Besides, the “Kapp as a percentage” value in assay [7] was 510%. Besides, the “Kapp as a percentage” value in [8] stood at 217%. Besides, the “kapp (apparent second-order inhibition rate constant)” value in [9] is 2.01e+06 M⁻¹ s⁻¹. Moreover, the “Kapp as a percentage” value in assay [10] was 34%.

B2: 7EVEA.451 (other)
chain: B1 chain with A385E, L386V, A388I, Q389A
modifications: N-linked glycans added by Drosophila S2 cells; not carried by the letters
notes: Made in Drosophila S2 cells (DES) on the S137A background; N-terminus printed as SPVDI---
Turning to B2, the IC50 in assay [11] is 50 nM. Moreover, in assay [12], the “rsd. Xa catG; CA expt #8; stg1 conc 200” value was 1 % of activity without ATIII, the “rsd. Xa hne; CA expt #8; stg1 conc 200” value is 1 % of activity without ATIII and the “rsd. Xa no add; CA expt #8; stg1 conc 200” value was 1 % of activity without ATIII. Further, in [13], the “Rsd. IIa No add; CA expt #8; stg1 conc 200” value is 6 % of activity without ATIII, the “rsd. IIa catG; CA expt #8; stg1 conc 200” value was 7 % of activity without ATIII and the “rsd. IIa hne; CA expt #8; stg1 conc 200” value is 12 % of activity without ATIII. Moreover, the IC50 in [14] amounted to 38 nM. In addition, the IC50 in assay [15] came to 400 nM. For the same molecule, the IC50 in assay [16] worked out at 450 nM.

B3: LEAI.482 (other)
chain: B1 chain with Q389H
For the molecule B3, the “Kapp as a percentage” value in assay [1] was determined as 41%; in assay [7], 256%; in assay [8] it was 145%; in assay [10], 91%. Further, the “kapp (apparent second-order inhibition rate constant)” value in assay [2] amounted to 5360 M⁻¹ s⁻¹; in [3] it was 2920 M⁻¹ s⁻¹; in [4], 831000 M⁻¹ s⁻¹; in assay [9], 5.37e+06 M⁻¹ s⁻¹. The “IC50 fXa/UFH; HCA #4” value in assay [5] turned out to be 22 nM. In addition, the “rsd. Xa catG; CA #14; stg1 conc 200” value in assay [5] was 1%. In addition, the “rsd. Xa hne; CA #14; stg1 conc 200” value in [5] amounted to 2%. For the same molecule, in [5], the “rsd. Xa no add; CA #14; stg1 conc 200” value worked out at 0%. Besides, the “IC50 IIa/UFH; HCA #4” value in assay [6] came out at 25 nM. For the same molecule, in [6], the “rsd. IIa catG; CA #14; stg1 conc 200” value came out at 1%. The “rsd. IIa hne; CA #14; stg1 conc 200” value in [6] amounted to 4%. Also, in assay [6], the “rsd. IIa no add; CA #14; stg1 conc 200” value came to 1%.

B4: LEAI.480 (other)
chain: B1 chain with Q389Y
Regarding B4, the “Kapp as a percentage” value in assay [1] came out at 104%. The “kapp (apparent second-order inhibition rate constant)” value in assay [2] turned out to be 24100 M⁻¹ s⁻¹. In addition, the “kapp (apparent second-order inhibition rate constant)” value in assay [3] amounted to 7310 M⁻¹ s⁻¹. The “kapp (apparent second-order inhibition rate constant)” value in assay [4] amounted to 489000 M⁻¹ s⁻¹. In addition, in assay [5], the “IC50 fXa/UFH; HCA #2” value stood at 65 nM, the “IC50 fXa/UFH; HCA #3” value is 46 nM, the “IC50 fXa/UFH; HCA #4” value came to 40 nM and the “rsd. Xa catG; CA #12; stg1 conc 200” value turned out to be 1%. In assay [5], the “rsd. Xa catG; CA #14; stg1 conc 200” value is 2%, the “rsd. Xa catG; CA #15; stg1 conc 200” value came to 0%, the “rsd. Xa hne; CA #12; stg1 conc 200” value turned out to be 1% and the “rsd. Xa hne; CA #14; stg1 conc 200” value amounted to 4%. Besides, in [5], the “rsd. Xa hne; CA #15; stg1 conc 200” value came to 1%, the “rsd. Xa no add; CA #12; stg1 conc 200” value stood at 1%, the “rsd. Xa no add; CA #14; stg1 conc 200” value was 2% and the “rsd. Xa no add; CA #15; stg1 conc 200” value is 1%. Also, in assay [6], the “IC50 IIa/UFH; HCA #2” value turned out to be 75 nM, the “IC50 IIa/UFH; HCA #3” value was found to be 43 nM, the “IC50 IIa/UFH; HCA #4” value was determined as 55 nM and the “rsd. IIa catG; CA #12; stg1 conc 200” value is 1%. Besides, in assay [6], the “rsd. IIa catG; CA #14; stg1 conc 200” value stood at 1%, the “rsd. IIa catG; CA #15; stg1 conc 200” value turned out to be 1%, the “rsd. IIa hne; CA #12; stg1 conc 200” value was 2% and the “rsd. IIa hne; CA #14; stg1 conc 200” value is 3%. Moreover, in [6], the “rsd. IIa hne; CA #15; stg1 conc 200” value worked out at 4%, the “rsd. IIa no add; CA #12; stg1 conc 200” value was found to be 1%, the “rsd. IIa no add; CA #14; stg1 conc 200” value came to 7% and the “rsd. IIa no add; CA #15; stg1 conc 200” value was -1%. In assay [7], the “Kapp as a percentage” value stood at 1150%. The “Kapp as a percentage” value in assay [8] is 85%. In addition, the “kapp (apparent second-order inhibition rate constant)” value in assay [9] stood at 2.11e+06 M⁻¹ s⁻¹. For the same molecule, the “Kapp as a percentage” value in assay [10] is 36%.
